Data from patent US20250002577A1 (ONCORESPONSE, published 2025).

Legend:
[1] = target: T1, recombinant human LILRB1-His (human, UniProt Q8NHL6 24-458); assay: MSD ELISA, coated antigen, transfection supernatant
T1 construct: Bought protein; also called LILRB1 protein
Protocol: (§1) To confirm binding to human LILRB1 and human LILRB2, transfection supernatants (obtained in Example 2) were evaluated for binding by ELISA. The conditioned media from these transient transfections were assayed for human IgG concentration by AlphaLISA® immunoassay (PerkinElmer, No. AL310C) (Table 4). A plate-based MSD ELISA was performed in which human LILRB1-His or LILRB2-His was immobilized, and binding of transfection supernatants of humanized mAb variants was detected via an anti-human IgG Sulfo-tag-labeled secondary antibody. The IgG1 version of the parental rabbit/human chimera (designated B21A1) transfection served as the benchmark EC₅₀ positive control.
(§2) Recombinant human and cynomolgus LILRB1 proteins (R&D Systems, No. 8989-T2-050; ACROBiosystems, No. CDJ-C52H3) and recombinant human and cynomolgus LILRB2 proteins (ACROBiosystems, No. LI2-H5220; No. L12-C52H3) were diluted in PBS to 4 μg/mL and added to a multi-array 384-well high-binding plates (MSD, No. L21XA4) at 10 μL/well and incubated at 4° C. overnight. The plates were washed several times with Wash Buffer (0.05% Tween® 20 in PBS), using a microplate washer and then blocked with 70 μL/well of 5% BSA in PBS for 1 hour (h) at room temperature (RT) with shaking at 700 rpm. After blocking, 20 μL/well of anti-LILRB2/LILRB1 antibodies or isotype control were added to the plates, and the plates were sealed and incubated for 2 h at RT with shaking at 700 rpm. After primary antibody binding, plates were washed five times with 70 μL/well of Wash Buffer (0.05% Tween® 20 in PBS) using a microplate washer. Secondary detection antibody (SULFO-TAG™-labeled goat anti-human IgG antibody (MSD, No. R32AJ-1)) was diluted to 4 μg/mL in assay diluent (1% BSA in PBS) and 10 μL/well was added to plates and incubated at RT protected from light for 1 h, with shaking at 700 rpm. Following incubation, plates were washed five times with Wash Buffer, using a microplate washer. After removal of the final wash, 35 μL/well of MSD Gold Read Buffer B (MSD, No. R60AM-4) was added to all wells using a Multidrop combo washer/dispenser, and plates were read using MESO Sector 600MM instrument (MSD) within 5 minutes (min) after addition of Read Buffer. Signals as counts per minute (cpm) were recorded.

[2] = target: T2, recombinant human LILRB2-His (human, UniProt Q8N423 22-461, limits assumed); assay: as above
T2 construct: Bought protein; also called LILRB2 protein
T2 sequence (Q8N423 22-461 limits assumed): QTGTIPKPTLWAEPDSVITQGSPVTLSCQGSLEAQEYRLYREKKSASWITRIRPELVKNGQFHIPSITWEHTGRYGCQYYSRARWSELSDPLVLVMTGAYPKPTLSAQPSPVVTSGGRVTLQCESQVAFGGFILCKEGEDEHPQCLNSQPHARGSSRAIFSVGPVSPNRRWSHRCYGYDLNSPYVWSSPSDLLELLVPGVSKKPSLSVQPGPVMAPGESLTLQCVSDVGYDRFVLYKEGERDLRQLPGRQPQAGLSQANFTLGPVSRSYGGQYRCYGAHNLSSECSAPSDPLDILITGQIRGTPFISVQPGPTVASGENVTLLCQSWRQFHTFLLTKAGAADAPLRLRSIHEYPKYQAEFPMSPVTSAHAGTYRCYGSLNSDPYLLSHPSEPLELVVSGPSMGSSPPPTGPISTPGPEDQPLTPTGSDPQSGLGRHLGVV
Protocol: as §1, §2

T1 sequence (Q8NHL6 24-458 limits assumed): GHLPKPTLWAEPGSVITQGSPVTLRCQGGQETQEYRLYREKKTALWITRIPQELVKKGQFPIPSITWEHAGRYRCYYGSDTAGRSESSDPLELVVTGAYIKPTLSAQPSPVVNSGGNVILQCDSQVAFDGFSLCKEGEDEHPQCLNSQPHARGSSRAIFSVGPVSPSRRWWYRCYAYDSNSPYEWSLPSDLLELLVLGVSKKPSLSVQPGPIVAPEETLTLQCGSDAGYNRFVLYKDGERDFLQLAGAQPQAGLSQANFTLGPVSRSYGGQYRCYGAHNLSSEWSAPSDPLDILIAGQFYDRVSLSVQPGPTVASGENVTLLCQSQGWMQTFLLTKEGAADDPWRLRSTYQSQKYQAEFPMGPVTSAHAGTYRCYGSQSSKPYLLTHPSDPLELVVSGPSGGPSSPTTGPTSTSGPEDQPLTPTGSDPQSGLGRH

EC50 [1] [ng/mL]	EC50 [2] [ng/mL]	Binder
2.92	1.57	B21H4-55 (antibody, human IgG4 S228P, kappa, humanized IgG4/kappa, VH5+VL5; transfection supernatant) heavy: not shown light: DIQMTQTPSTVEASVGGTVTITCQASGNIYSFLAWYQQKPGQPPKLLIYTASNLETGVPSRFSGSGSGTEYTLTISGLQSDDAATYYCLGGLYSSDVSYAFGGGTEVVVKRTVAAPSVFIFPPSDEQLKSGTASVVCLLNNFYPREAKVQWKVDNALQSGNSQESVTEQDSKDSTYSLSSTLTLSKADYEKHKVYACEVTHQGLSSPVTKSFNRGEC
5.71	1.38	B21H4-41 (antibody, human IgG4 S228P, kappa, V domains shown, humanized IgG4/kappa, VH4+VL1; transfection supernatant) VH: EVQLVESGGGLVQPGGSLRLSCAASGFSLNTYAMTWVRQAPGKGLEWISIIVASGGTYYASWAKGRFTISRDNAKSSVYLQLTSLTTEDTAVYYCARGGMGSDWGESLDAFDPWGQGTMVTVSS VL: DIQMTQSPSTLSASVGDRVTITCQASGNIYSFLAWYQQKPGKAPKLLIYTASNLETGVPSRFSGSGSGTEYTLTISSLQPDDFATYYCLGGLYSSDVSYAFGPGTKVEIKR
3.23	1.63	B21H4-44 (antibody, human IgG4 S228P, kappa, V domains shown, humanized IgG4/kappa, VH4+VL4; transfection supernatant) VH: EVQLVESGGGLVQPGGSLRLSCAASGFSLNTYAMTWVRQAPGKGLEWISIIVASGGTYYASWAKGRFTISRDNAKSSVYLQLTSLTTEDTAVYYCARGGMGSDWGESLDAFDPWGQGTMVTVSS VL: DVVMTQSPSTVSASVGDRVTLTCQASGNIYSFLAWYQQKPGQPPKLLIYTASNLETGVPDRFSGSGSGTDYTLTISSLQADDFATYYCLGGLYSSDVSYAFGQGTKVEIKR
3.12	1.08	B21H4-42 (antibody, human IgG4 S228P, kappa, humanized IgG4/kappa, VH4+VL2; transfection supernatant) heavy: not shown light: DIQMTQSPSSLSASVGDRVTITCQASGNIYSFLAWYQQKPGKVPKLLIYTASNLETGVPSRFSGSGSGTDYTLTISSLQSEDAATYYCLGGLYSSDVSYAFGGGTKVVIKRTVAAPSVFIFPPSDEQLKSGTASVVCLLNNFYPREAKVQWKVDNALQSGNSQESVTEQDSKDSTYSLSSTLTLSKADYEKHKVYACEVTHQGLSSPVTKSFNRGEC
3.04	0.63	B21H4-43 (antibody, human IgG4 S228P, kappa, humanized IgG4/kappa, VH4+VL3; transfection supernatant) heavy: not shown light: DIVMTQSPSSVSASVGDRVTITCQASGNIYSFLAWYQQKPGKAPKLLIYTASNLETGVPSRFSGSGSGTDFTLTISSLQPEDFATYYCLGGLYSSDVSYAFGGGTKVVIKRTVAAPSVFIFPPSDEQLKSGTASVVCLLNNFYPREAKVQWKVDNALQSGNSQESVTEQDSKDSTYSLSSTLTLSKADYEKHKVYACEVTHQGLSSPVTKSFNRGEC
2.66	0.72	B21H4-33 (antibody, human IgG4 S228P, kappa, humanized IgG4/kappa, VH3+VL3; transfection supernatant) heavy: not shown light: DIVMTQSPSSVSASVGDRVTITCQASGNIYSFLAWYQQKPGKAPKLLIYTASNLETGVPSRFSGSGSGTDFTLTISSLQPEDFATYYCLGGLYSSDVSYAFGGGTKVVIKRTVAAPSVFIFPPSDEQLKSGTASVVCLLNNFYPREAKVQWKVDNALQSGNSQESVTEQDSKDSTYSLSSTLTLSKADYEKHKVYACEVTHQGLSSPVTKSFNRGEC

More lines, now with the values behind:

Binder	EC50 [1] [ng/mL]	EC50 [2] [ng/mL]
B21H4-35 (antibody, human IgG4 S228P, kappa, V domains shown, humanized IgG4/kappa, VH3+VL5; transfection supernatant) VH: EVQLVESGGDLAQPGGSLRLSCAVSGFSLNTYAMTWVRQAPGKGLEWVSIIVASGGTYYASWAKGRFTISRDNSKNTVYLQMTSLRAEDTALYFCARGGMGSDWGESLDAFDPWGQGTLVTVSS VL: DIQMTQTPSTVEASVGGTVTITCQASGNIYSFLAWYQQKPGQPPKLLIYTASNLETGVPSRFSGSGSGTEYTLTISGLQSDDAATYYCLGGLYSSDVSYAFGGGTEVVVKR	3.91	1.73
B21H4-31 (antibody, human IgG4 S228P, kappa, V domains shown, humanized IgG4/kappa, VH3+VL1; transfection supernatant) VH: EVQLVESGGDLAQPGGSLRLSCAVSGFSLNTYAMTWVRQAPGKGLEWVSIIVASGGTYYASWAKGRFTISRDNSKNTVYLQMTSLRAEDTALYFCARGGMGSDWGESLDAFDPWGQGTLVTVSS VL: DIQMTQSPSTLSASVGDRVTITCQASGNIYSFLAWYQQKPGKAPKLLIYTASNLETGVPSRFSGSGSGTEYTLTISSLQPDDFATYYCLGGLYSSDVSYAFGPGTKVEIKR	3.58	2.02
B21H4-15 (antibody, human IgG4 S228P, kappa, humanized IgG4/kappa, VH1+VL5; transfection supernatant) heavy: not shown light: DIQMTQTPSTVEASVGGTVTITCQASGNIYSFLAWYQQKPGQPPKLLIYTASNLETGVPSRFSGSGSGTEYTLTISGLQSDDAATYYCLGGLYSSDVSYAFGGGTEVVVKRTVAAPSVFIFPPSDEQLKSGTASVVCLLNNFYPREAKVQWKVDNALQSGNSQESVTEQDSKDSTYSLSSTLTLSKADYEKHKVYACEVTHQGLSSPVTKSFNRGEC	3.1	1.25
B21H4-25 (antibody, human IgG4 S228P, kappa, humanized IgG4/kappa, VH2+VL5; transfection supernatant) heavy: not shown light: DIQMTQTPSTVEASVGGTVTITCQASGNIYSFLAWYQQKPGQPPKLLIYTASNLETGVPSRFSGSGSGTEYTLTISGLQSDDAATYYCLGGLYSSDVSYAFGGGTEVVVKRTVAAPSVFIFPPSDEQLKSGTASVVCLLNNFYPREAKVQWKVDNALQSGNSQESVTEQDSKDSTYSLSSTLTLSKADYEKHKVYACEVTHQGLSSPVTKSFNRGEC	3.95	1.42
B21H4-11 (antibody, human IgG4 S228P, kappa, humanized IgG4/kappa, VH1+VL1; transfection supernatant) heavy: not shown light: DIQMTQSPSTLSASVGDRVTITCQASGNIYSFLAWYQQKPGKAPKLLIYTASNLETGVPSRFSGSGSGTEYTLTISSLQPDDFATYYCLGGLYSSDVSYAFGPGTKVEIKRTVAAPSVFIFPPSDEQLKSGTASVVCLLNNFYPREAKVQWKVDNALQSGNSQESVTEQDSKDSTYSLSSTLTLSKADYEKHKVYACEVTHQGLSSPVTKSFNRGEC	2.24	1.45
B21H4-32 (antibody, human IgG4 S228P, kappa, humanized IgG4/kappa, VH3+VL2; transfection supernatant) heavy: not shown light: DIQMTQSPSSLSASVGDRVTITCQASGNIYSFLAWYQQKPGKVPKLLIYTASNLETGVPSRFSGSGSGTDYTLTISSLQSEDAATYYCLGGLYSSDVSYAFGGGTKVVIKRTVAAPSVFIFPPSDEQLKSGTASVVCLLNNFYPREAKVQWKVDNALQSGNSQESVTEQDSKDSTYSLSSTLTLSKADYEKHKVYACEVTHQGLSSPVTKSFNRGEC	2.46	0.95
B21H4-23 (antibody, human IgG4 S228P, kappa, humanized IgG4/kappa, VH2+VL3; transfection supernatant) heavy: not shown light: DIVMTQSPSSVSASVGDRVTITCQASGNIYSFLAWYQQKPGKAPKLLIYTASNLETGVPSRFSGSGSGTDFTLTISSLQPEDFATYYCLGGLYSSDVSYAFGGGTKVVIKRTVAAPSVFIFPPSDEQLKSGTASVVCLLNNFYPREAKVQWKVDNALQSGNSQESVTEQDSKDSTYSLSSTLTLSKADYEKHKVYACEVTHQGLSSPVTKSFNRGEC	2.85	1.08
B21H4-12 (antibody, human IgG4 S228P, kappa, humanized IgG4/kappa, VH1+VL2; transfection supernatant) heavy: not shown light: DIQMTQSPSSLSASVGDRVTITCQASGNIYSFLAWYQQKPGKVPKLLIYTASNLETGVPSRFSGSGSGTDYTLTISSLQSEDAATYYCLGGLYSSDVSYAFGGGTKVVIKRTVAAPSVFIFPPSDEQLKSGTASVVCLLNNFYPREAKVQWKVDNALQSGNSQESVTEQDSKDSTYSLSSTLTLSKADYEKHKVYACEVTHQGLSSPVTKSFNRGEC	2.41	0.74
B21H4-22 (antibody, human IgG4 S228P, kappa, humanized IgG4/kappa, VH2+VL2; transfection supernatant) heavy: not shown light: DIQMTQSPSSLSASVGDRVTITCQASGNIYSFLAWYQQKPGKVPKLLIYTASNLETGVPSRFSGSGSGTDYTLTISSLQSEDAATYYCLGGLYSSDVSYAFGGGTKVVIKRTVAAPSVFIFPPSDEQLKSGTASVVCLLNNFYPREAKVQWKVDNALQSGNSQESVTEQDSKDSTYSLSSTLTLSKADYEKHKVYACEVTHQGLSSPVTKSFNRGEC	1.85	1.06
B21H4-21 (antibody, human IgG4 S228P, kappa, V domains shown, humanized IgG4/kappa, VH2+VL1; transfection supernatant) VH: EVQLLESGGGLVQPGGSLRLSCAASGFSLNTYAMTWVRQAPGKGLEWVSIIVASGGTYYASWAKGRFTISRDNSKNTLYLQMNSLTVEDTAVYFCARGGMGSDWGESLDAFDPWGQGTLVTVSS VL: DIQMTQSPSTLSASVGDRVTITCQASGNIYSFLAWYQQKPGKAPKLLIYTASNLETGVPSRFSGSGSGTEYTLTISSLQPDDFATYYCLGGLYSSDVSYAFGPGTKVEIKR	2.32	1.93
B21H4-24 (antibody, human IgG4 S228P, kappa, humanized IgG4/kappa, VH2+VL4; transfection supernatant) heavy: not shown light: DVVMTQSPSTVSASVGDRVTLTCQASGNIYSFLAWYQQKPGQPPKLLIYTASNLETGVPDRFSGSGSGTDYTLTISSLQADDFATYYCLGGLYSSDVSYAFGQGTKVEIKRTVAAPSVFIFPPSDEQLKSGTASVVCLLNNFYPREAKVQWKVDNALQSGNSQESVTEQDSKDSTYSLSSTLTLSKADYEKHKVYACEVTHQGLSSPVTKSFNRGEC	1.95	0.84
